Consider one molecule from paper PMC8549118 (Nature structural & molecular biology, 2021).

Non-standard residues stand in square brackets, D forms with d. No end group written: not given here. pT = C[C@@H](OP(=O)(O)O)[C@H](N)C(=O)O; pS = N[C@@H](COP(=O)(O)O)C(=O)O

The target in this test is T1, VSP-C363S (voltage-sensing phosphatase, aa 241-576) (C. intestinalis, UniProt Q4W8A1 241-576, C363S).
T1 sequence (looked up): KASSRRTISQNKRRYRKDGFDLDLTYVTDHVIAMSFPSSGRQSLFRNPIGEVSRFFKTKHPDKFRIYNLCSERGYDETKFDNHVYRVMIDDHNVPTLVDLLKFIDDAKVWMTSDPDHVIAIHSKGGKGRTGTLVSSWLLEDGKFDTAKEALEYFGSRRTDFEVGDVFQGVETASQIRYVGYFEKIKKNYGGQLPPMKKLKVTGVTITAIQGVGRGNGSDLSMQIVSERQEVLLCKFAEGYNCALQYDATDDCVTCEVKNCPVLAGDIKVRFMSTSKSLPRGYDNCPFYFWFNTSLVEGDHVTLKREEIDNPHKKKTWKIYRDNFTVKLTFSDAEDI
The test is described as follows: fluorescence polarisation. (Fluorescence polarisation rises when a labelled molecule tumbles more slowly, as on binding a larger partner.)

Take CRY[pS]D[pT][pT]D[pS]DPENEG [4p-T2, tetraphosphorylated PTEN C-tail peptide (15 aa)]: the binding result is reported as “binds”.
